Test system: Aβ1-40 or Aβ1-42 SDS-resistant polymers
Experiment: Dissolution of in vitro Cu^2+-induced SDS-resistant Aβ polymers
Type: biochemical, human

B1: proteinase K: protease (protein, UniProt P06873 106-384, looked up)
Proteinase K: AAQTNAPWGLARISSTSPGTSTYYYDESAGQGSCVYVIDTGIEASHPEFEGRAQMVKTYYYSSRDGNGHGTHCAGTVGSRTYGVAKKTQLFGVKVLDDNGSGQYSTIIAGMDFVASDKNNRNCPKGVVASLSLGGGYSSSVNSAAARLQSSGVMVAVAAGNNNADARNYSPASEPSVCTVGASDRYDRRSSFSNYGSVLDIFGPGTSILSTWIGGSTRSISGTSMATPHVAGLAAYLMTLGKTTAASACRYIADTANKGDLSNIPFGTVNLLAYNNYQA
- degradation of SDS-resistant Aβ polymers: complete degradation

— patent publication US20020082273A1, “Agents for use in the treatment of alzheimer's disease” (priority 1998, published 2002)
